Test system: CyPPO13
Test: PPO enzyme activity and IC50 by herbicides, CyPPO13 wild type and variants (MBP-PPO fusion)
Assay type: biochemical, Synechococcus sp. JA-3-3Ab
Settings: PPO enzyme activity of CyPPO13 protein, wild type = 100
Outline: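 Activity was read as protoporphyrin IX fluorescence (405/633 nm), calibrated with a protoporphyrin IX standard curve, after 30 min at room temperature with 50 μM substrate under mineral oil. The buffer was 50 mM Tris-Cl pH 8.0 with glucose oxidase/catalase and a 30 min preincubation. Enzymes were purified MBP-PPO fusions of CyPPO10 or CyPPO13, wild type and variants, expressed in E. coli.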

Molecule	Activity (%)
CyPPO13 V175C: CyPPO13 (SEQ ID NO: 4) PPO variant (protein, Synthetic CyPPO13) MNPATPEPLNAEVVVIGAGISGLTLAWRLQQGLSARGGSPQAVLLAEASSRVGGCISTQSKDGYRWEEGPNSFTPTPALLNLIAEVGLTDQLVLADAKLPRYIYWEGALLPVPLSPAAALGSRLLSVGGKLRALQGLLGFVPPPPGHEETVRQFFRRQLGSEVAERLVEPFTSGCYAGDPDQLSAVAAFPRVAGLEERYGSLFAGALQALRQRPQPSPAAIQPPPKRGQLGNLRQGLQQLPEALAQKLGDSLRLGWRALQLKRAGELYWVGFETPEGSRWVAARQVVLALPAYEAAALLQELNPPASQLLAEILYPPVAVVALAYPQEALPQPLRGFGHLIPRSQGLRTLGTIWASCLFPERAPQGYHSFLSFLGGATDAALARRRGIPPIPALSPEERAQIAHAELSQVLLTRRAEPVYLGERLWPRAIPQYTLGHRQRIAQVQAHLASQTPGIWVCANYLDGVALGDCVRRAEALAQQLLSQV	94
CyPPO13 A177L: CyPPO13 (SEQ ID NO: 4) PPO variant (protein, Synthetic CyPPO13) MNPATPEPLNAEVVVIGAGISGLTLAWRLQQGLSARGGSPQAVLLAEASSRVGGCISTQSKDGYRWEEGPNSFTPTPALLNLIAEVGLTDQLVLADAKLPRYIYWEGALLPVPLSPAAALGSRLLSVGGKLRALQGLLGFVPPPPGHEETVRQFFRRQLGSEVAERLVEPFTSGVYLGDPDQLSAVAAFPRVAGLEERYGSLFAGALQALRQRPQPSPAAIQPPPKRGQLGNLRQGLQQLPEALAQKLGDSLRLGWRALQLKRAGELYWVGFETPEGSRWVAARQVVLALPAYEAAALLQELNPPASQLLAEILYPPVAVVALAYPQEALPQPLRGFGHLIPRSQGLRTLGTIWASCLFPERAPQGYHSFLSFLGGATDAALARRRGIPPIPALSPEERAQIAHAELSQVLLTRRAEPVYLGERLWPRAIPQYTLGHRQRIAQVQAHLASQTPGIWVCANYLDGVALGDCVRRAEALAQQLLSQV	97
CyPPO13 I353T: CyPPO13 (SEQ ID NO: 4) PPO variant (protein, Synthetic CyPPO13) MNPATPEPLNAEVVVIGAGISGLTLAWRLQQGLSARGGSPQAVLLAEASSRVGGCISTQSKDGYRWEEGPNSFTPTPALLNLIAEVGLTDQLVLADAKLPRYIYWEGALLPVPLSPAAALGSRLLSVGGKLRALQGLLGFVPPPPGHEETVRQFFRRQLGSEVAERLVEPFTSGVYAGDPDQLSAVAAFPRVAGLEERYGSLFAGALQALRQRPQPSPAAIQPPPKRGQLGNLRQGLQQLPEALAQKLGDSLRLGWRALQLKRAGELYWVGFETPEGSRWVAARQVVLALPAYEAAALLQELNPPASQLLAEILYPPVAVVALAYPQEALPQPLRGFGHLIPRSQGLRTLGTTWASCLFPERAPQGYHSFLSFLGGATDAALARRRGIPPIPALSPEERAQIAHAELSQVLLTRRAEPVYLGERLWPRAIPQYTLGHRQRIAQVQAHLASQTPGIWVCANYLDGVALGDCVRRAEALAQQLLSQV	62
CyPPO13 V318M: CyPPO13 (SEQ ID NO: 4) PPO variant (protein, Synthetic CyPPO13) MNPATPEPLNAEVVVIGAGISGLTLAWRLQQGLSARGGSPQAVLLAEASSRVGGCISTQSKDGYRWEEGPNSFTPTPALLNLIAEVGLTDQLVLADAKLPRYIYWEGALLPVPLSPAAALGSRLLSVGGKLRALQGLLGFVPPPPGHEETVRQFFRRQLGSEVAERLVEPFTSGVYAGDPDQLSAVAAFPRVAGLEERYGSLFAGALQALRQRPQPSPAAIQPPPKRGQLGNLRQGLQQLPEALAQKLGDSLRLGWRALQLKRAGELYWVGFETPEGSRWVAARQVVLALPAYEAAALLQELNPPASQLLAEILYPPMAVVALAYPQEALPQPLRGFGHLIPRSQGLRTLGTIWASCLFPERAPQGYHSFLSFLGGATDAALARRRGIPPIPALSPEERAQIAHAELSQVLLTRRAEPVYLGERLWPRAIPQYTLGHRQRIAQVQAHLASQTPGIWVCANYLDGVALGDCVRRAEALAQQLLSQV	81
CyPPO13 E340T: CyPPO13 (SEQ ID NO: 4) PPO variant, printed E340T, probably L340T (protein, Synthetic CyPPO13) MNPATPEPLNAEVVVIGAGISGLTLAWRLQQGLSARGGSPQAVLLAEASSRVGGCISTQSKDGYRWEEGPNSFTPTPALLNLIAEVGLTDQLVLADAKLPRYIYWEGALLPVPLSPAAALGSRLLSVGGKLRALQGLLGFVPPPPGHEETVRQFFRRQLGSEVAERLVEPFTSGVYAGDPDQLSAVAAFPRVAGLEERYGSLFAGALQALRQRPQPSPAAIQPPPKRGQLGNLRQGLQQLPEALAQKLGDSLRLGWRALQLKRAGELYWVGFETPEGSRWVAARQVVLALPAYEAAALLQELNPPASQLLAEILYPPVAVVALAYPQEALPQPLRGFGHTIPRSQGLRTLGTIWASCLFPERAPQGYHSFLSFLGGATDAALARRRGIPPIPALSPEERAQIAHAELSQVLLTRRAEPVYLGERLWPRAIPQYTLGHRQRIAQVQAHLASQTPGIWVCANYLDGVALGDCVRRAEALAQQLLSQV	83
CyPPO13 F337V: CyPPO13 (SEQ ID NO: 4) PPO variant (protein, Synthetic CyPPO13) MNPATPEPLNAEVVVIGAGISGLTLAWRLQQGLSARGGSPQAVLLAEASSRVGGCISTQSKDGYRWEEGPNSFTPTPALLNLIAEVGLTDQLVLADAKLPRYIYWEGALLPVPLSPAAALGSRLLSVGGKLRALQGLLGFVPPPPGHEETVRQFFRRQLGSEVAERLVEPFTSGVYAGDPDQLSAVAAFPRVAGLEERYGSLFAGALQALRQRPQPSPAAIQPPPKRGQLGNLRQGLQQLPEALAQKLGDSLRLGWRALQLKRAGELYWVGFETPEGSRWVAARQVVLALPAYEAAALLQELNPPASQLLAEILYPPVAVVALAYPQEALPQPLRGVGHLIPRSQGLRTLGTIWASCLFPERAPQGYHSFLSFLGGATDAALARRRGIPPIPALSPEERAQIAHAELSQVLLTRRAEPVYLGERLWPRAIPQYTLGHRQRIAQVQAHLASQTPGIWVCANYLDGVALGDCVRRAEALAQQLLSQV	88

From patent publication US11466286B2, “Methods and compositions for conferring and/or enhancing herbicide tolerance using protoporphyrinogen oxidase or variant thereof” (FarmHannong Co., Ltd., priority 2016, dated 2022)
